Assay results from the nanobody polyreactivity screen of Harvey et al. (2022).

test: yeast display, Sf9 membrane polyspecificity reagent, FACS + sequencing; frameworks hold sequencing errors
In short: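 A synthetic nanobody library was expressed on Saccharomyces cerevisiae BJ5465 by galactose induction for 36–48 hours. The library was stained for 1 hour at 4 °C with 10% biotinylated, detergent-solubilized Sf9 membrane reagent and enriched with streptavidin microbeads before FACS. Low and high (top ~1%) gates were set on anti-HA fluorescence for expression and streptavidin fluorescence for reagent binding, and each polyreactivity label reflects the gate of origin.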

Row | Sequence | polyreactivity (PSR sort gate)
1 | QVQLVESGGGLVQAGGSLRLSCAASGRINLYNAMGWYRQAPRKEMELVAVISYRGGSTYYADSVKGRFTISRENAKNTVYLQMNSLKPDDTAVYYCNKDKSYSGTRYDYWGQGTQVTVSS | high polyreactivity
2 | QVQLVESGGGLVQAGGSLRLSCAASGRIQSVYAMGWYRQAPGKERELVAAIDYSGGSTNYADSVKGRFTISRDNGKNTVYLQMNSLKPEDTAVYYCNREGGAIAWRYLLEYLYSWGQGTQVTVSS | low polyreactivity
3 | QVQLVESGGGLVQAGGSLRLSCAASGRIQYNAMGWYSQAPGKEREFGAAISWSGGTTYYADSVKGRFTISRDTAKNTVYLQMNSLKPEDTAVYYCATPYTHWGQGTQVTVSS | high polyreactivity
4 | QVQLVESGGGLVQAGGSLRLSCAASGRISGVNAMGWSRQAPGKERELVATISGSGGRTYYADSVKGRFTISRDNAKNTVYLQMNSLNPEDTGGYYCNSMVERGGYFSRRFDFWGQGSQVTVSS | low polyreactivity
5 | QVQLVESGGGLVQAGGSLRLSCAASGRISGYNAMGWYRPAPGKQRELVAVITGSGGTYYADSVKGRFTISRDNAKNTVYLQMNSLKPEDSAVYYCAAGLAIRTYYPRYDYWGQGTQVTVSS | low polyreactivity
6 | QVQLVESGGGLVQAGGSLRLSCAASGRISIIYAMGWYRQAPGKERELVARISGSGGSTNYADSVKGRFTISRDNAKNTVYLQMKSLKPEDTAVYYCAAVPWRIHKYYYWGQCTQVTVSS | high polyreactivity
7 | QVQLVESGGGLVQAGGSLRLSCAASGRISKIYAMGWYRQAPGKERELVAAINSGGSTNYADSVKGRFTISRDNAKNTVYLQLNSLKPEDTAVYYCAATFKSGMDYWGQGTQVTVSS | high polyreactivity
8 | QVQLVESGGGLVQAGGSLRLSCAASGRISLGYAMGWYRQAPGKERELVAAITRGGTTSYAHSVKGRFTISRDNAKNTVYLQMNSLKPEDTAVYYCAVPAGYFGKWTYYYWGQGTQVTVSS | high polyreactivity
9 | QVQLVESGGGLVQAGGSLRLSCAASGRISLHNTIGWYRQAPGKERELVAAINYSGGSTYYADTVKGRFTISRDNAKNTVYLQMNSLKPEDTEVYYCAADFYQSHFYRPRYDYWGQGTQVTVSS | low polyreactivity
10 | QVQLVESGGGLVQAGGSLRLSCAASGRISNFYSMGWYIQAPGKERELVAANRSGGSTNYADSVKGRFTISRDNAKYTVYLQMNSLKPEDTAVYYCAAVTGASPTRMDYWGQGTQVTVSS | high polyreactivity
11 | QVQLVESGGGLVQAGGSLRLSCAASGRISQYNAMGWYRQAPGKERELVATITRGGSTYYADSVKGRFTISRDNAKNTVYLQMNSLKPEDTAVYYCATDRYWWSGFDYWGQGTQVTVSS | high polyreactivity
12 | QVQLVESGGGLVQAGGSLRLSCAASGRISVFYAMGWYRQAPGKEMELGAAITRSGTTKYADSVKGRFTISRDNAKNTVYLQMNSLKPEDTAVYYCAARSVYYKFGYYYWGQGSQVTVSS | high polyreactivity
13 | QVQLVESGGGLVQAGGSLRLSCAASGRISVFYTRGWYRQAPGKERELVAVIRTSGGRTNYADSVKGRFTISRDNAKNTVYLQMNSLKPEDTAVYYCAARVVRYGYKYYYWGQGTQVTVSS | low polyreactivity
14 | QVQLVESGGGLVQAGGSLRLSCAASGRITGINAMGWYRPAPGKERELVAAITWRGGRKYYADSVKGRFTISRDNAKNTVYLQMNSLKPEDTAVYYCAAELQGAYYFAYYYWGQGTQVNVSS | high polyreactivity
15 | QVQLVESGGGLVQAGGSLRLSCAASGRIVDIYAMGWYRQAPGTERELVAAITWRGGSTYYADSVKGRFTISRDNAKNTVYLQMNSLKPEDTAVYYCAVDFFTPRGSYYWGQGTQVTVSS | low polyreactivity
16 | QVQLVESGGGLVQAGGSLRLSCAASGRIVFYAMGWYRQAPGKERELVAAITGSGGRTYYADSVKGRFTISRDNAKITVYLQMNSLKPEDTAVYYCAARKWRHGYQGDYWGQGTQVTVSS | high polyreactivity
17 | QVQLVESGGGLVQAGGSLRLSCAASGRIVGFYGMGWYRQAPGKERELVARITVGGGSTYYADSVKGRFTISRDNAKNTGYLQMNSLKPEDTAVYYCNAVYARYGSQGYEYWGQGTQVTVSS | high polyreactivity
18 | QVQLVESGGGLVQAGGSLRLSCAASGRIVRFYGMGWYRQAPGKERELVAAITDGCGTNYADSVKGRFSISRDNAKNTVYLQMNSLKPEDTAVYYCAADSRFVWSGEYWGQGTQVTVSS | low polyreactivity
19 | QVQLVESGGGLVQAGGSLRLSCAASGRIVYVNVMGWYRQAPGKERELVAAINWSDGSTYYADSVKGRFTISRDNAKNTVYLQMNSLKPEETAVYYFNRRGPYGYKAWAIGTIGDLDYWGHGTQVTVSS | low polyreactivity
20 | QVQLVESGGGLVQAGGSLRLSCAASGRIWLYAMGWYRQAPGKERELVAAISWTDGRTRYADSVKGRFTISRDNAKNTVYLQMNRLKPEDTAVYYCAPVVDRGYRRVKYYYWGQGTQVSVSS | high polyreactivity
21 | QVQLVESGGGLVQAGGSLRLSCAASGRIYAMGWYRQAPGKERELVAAISRGGSTYYADSVKGRFTISRDNAKNTVYLQMNSLKPEDTAVYYCARRYASTGYDYWGQCTQVTVSS | high polyreactivity
22 | QVQLVESGGGLVQAGGSLRLSCAASGRIYDRYDMVWYRQAPVKERELVAAISSGGSTYYADSVKGRFTISRDNAKNTVYLQMNSLKPEDTAVNNCAADRRSKYDYWGQGTQVTVSA | low polyreactivity

Row | Sequence | polyreactivity (PSR sort gate)
23 | QVQLVESGGGLVQAGGSLRLSCAASGRIYDYMGWYRQAPGKERELVAAITSSGVSTYYADSVKGRFTISRDNAKNTVYLQMNSLKPEDTAVYYCAAERVYIVWFTHEIFNYWGQGTQVTVSS | high polyreactivity
24 | QVQLVESGGGLVQAGGSLRLSCAASGRIYGKYAMGWSRQAPGKERELVASISYSGGSTYYADSVKGRFTISRDNAKNTVYLHMISLKPEDTAVYYCAARKWRYGRYVYWGQGTQVTVSS | high polyreactivity
25 | QVQLVESGGGLVQAGGSLRLSCAASGRIYGVYALGWYRQAPGKERELVAAITSSGGSTYYADSVKGRFTISRDNAKNTVYLQMNSLKPEDTAVYYCAADNTFRDDYFLYYLFNYNYWGQGTQVTVSS | low polyreactivity
26 | QVQLVESGGGLVQAGGSLRLSCAASGRIYKRNAMGWYRQAPGKERELVAAITGNVGSTYYADSVKGRFTISRDNAKNTVYLQMNSLKPEDTAVYYCAAETYPVWGVAFYYWGQGTQVTVSS | high polyreactivity
27 | QVQLVESGGGLVQAGGSLRLSCAASGRIYNGNAMGWYRQAPGKERELVAAITSDGSTYADSVKGRFTISRDNAKNTVYLHMNSLKPEATADYYCATDDPLAYGSFGPYQPYDYWGQGTQVTVSS | low polyreactivity
28 | QVQLVESGGGLVQAGGSLRLSCAASGRIYNPNGMGWYRQAPGKERELVAVITRSGTSTYYADSVKGRFTISRDNAKNTVYLQMNSLKPEDTAVYYCNAGKKYVDYGGPSSRYYWGQGTQVTVSS | low polyreactivity
29 | QVQLVESGGGLVQAGGSLRLSCAASGRIYRDYAMGWYRQAPGKERELVATITWSGATTYYADSVKGRFTISRDNAKNTVYLQMNSLKPEDTAVYYCAKVYPRFYTFGEYNYWGQGTQVTVSS | low polyreactivity
30 | QVQLVESGGGLVQAGGSLRLSCAASGRIYSQYDMGWYRQAPGKESELVAAISGGVGTNYADSVKGRFTISRDNAKNTVYLQMNSLKPEDSAVYYCAADVGYLGRSRGYPSDDYDYWGQGTQVTVSS | low polyreactivity
31 | QVQLVESGGGLVQAGGSLRLSCAASGRIYSVYAMGWYRQAPGKERELVAAIRSGDRTNYADSVKGRFTISRDNAKNTVYLQMNSLKPEDTAVYYCAAVQRPYYYWGQGTQVTVSS | high polyreactivity
32 | QVQLVESGGGLVQAGGSLRLSCAASGRIYVNAMGWYIQAPGKERELVAAIRSGGSTNYADSVKGRFTISRDNAKNTVYLQMNSLKPEDTAVYYCNARRRDYRHWYDYWGQGTQVTVSS | high polyreactivity
33 | QVQLVESGGGLVQAGGSLRLSCAASGRIYWNDMGWYIQAPGKERELVAAISWGGDRTYYADSVKGRFTISRDNAKNTVYLQMNSLKPEDTSVYYCNAPGYLTYDHSYDYWGQGTQVTVSS | low polyreactivity
34 | QVQLVESGGGLVQAGGSLRLSCAASGRIYWNTMGWYRQAPGKERELVASISTGGGRTYYADSVKGRFTISRDNAKNTVYLQMNSLKPEDTAVYYCAVRSYGHGFDYWGQGTQVTVSS | high polyreactivity
35 | QVQLVESGGGLVQAGGSLRLSCAASGRIYWYYAMGWYRQAPGKERELVATISYGGGNTYYADTVKVRFTISRDNAKNTVYLQMNSLNPEDTAVYYCARVPYAYLPYKPFQQYSYDYWGQGTQVTVSS | high polyreactivity
36 | QVQLVESGGGLVQAGGSLRLSCAASGRKLSWNTMGWYRQAPGKETELVACITQNVGSTYYADSVKGRFTISRDNAKNTVYIQMKSLKPEDTAVYYCAAKRLSWHRYGYWGQGTQETVSS | low polyreactivity
37 | QVQLVESGGGLVQAGGSLRLSCAASGRNFAPNAMGWYRQAPGKERELVAAISGSGTSTYYADSVKGRFTISRDNAKNTVYLQMNSLKPEDTAVYYCAKSARGRRGGFDYWGQGTQVTVSS | low polyreactivity
38 | QVQLVESGGGLVQAGGSLRLSCAASGRNFEIYAMGWYRQAPGKERELVAAISWRGVSTYYADSVKGRFTISRDNAKNTVYLQMNSLKPEDTAVYYCNKDVDYFWYVEYDYWGQGTQVTVSS | low polyreactivity
39 | QVQLVESGGGLVQAGGSLRLSCAASGRNFEQYAMGWYRQAPGKERELVAAISGSGGSTFYADSVKGRFTISRDNAKNTVYVQMNRLKPEDTAVYYCNAPGDGYLYDHTYDYWGQGTQVTVSS | low polyreactivity
40 | QVQLVESGGGLVQAGGSLRLSCAASGRNFEVYTMGWYRQAPGTERELVDAIDRSTGSTYYADSVKGRFTISRDNAKNTVYLQMNSLKPEDTAVYDCAARGTFLGTRPLGRFDYWGQGTQVTVSS | low polyreactivity
41 | QVQLVESGGGLVQAGGSLRLSCAASGRNFFYALGWYRQAPGKERELVASITTSGTSTYYADSVKGRFTISRDNAKNIVYLQMNSLKPEDTAVYYCNATSNSIRWYDLYYWGQGTKVTVSS | low polyreactivity
42 | QVQLVESGGGLVQAGGSLRLSCAASGRNFGYYTMGWYRQAPGKERELVAAITSSGGRTYYADSVKGRFTISRDNAKNTVYLQMNSLIPEVTAVYYCNKVTYGYAYWRYDGYYYWGQGTQVTVSS | low polyreactivity
43 | QVQLVESGGGLVQAGGSLRLSCAASGRNFLSYMGWYRQAPGKERELVAISRSGTSTYYADSVKGRFTISRDNAKNTVYLQMNSLKPEDTAVYYCAAEVLRDGWWGYYYWGQGTQVTVSS | high polyreactivity
